Data reported in article PMC2756588.
Values belong to the binder of their own block, whether it stands above or below them.

How the values were obtained:
Test in all cases: SPOT array
GST = settings: median of control spots 978
Bbc1, P47068 = target: T1, Bbc1, P47068; settings: median of control spots 796
T1 sequence (P47068 1-78, looked up): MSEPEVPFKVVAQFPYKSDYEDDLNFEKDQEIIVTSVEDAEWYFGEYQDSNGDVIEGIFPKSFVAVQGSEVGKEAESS

Cdc25, P04821 = target: T2, Cdc25, P04821; settings: median of control spots 969
T2 sequence (P04821 50-136, looked up): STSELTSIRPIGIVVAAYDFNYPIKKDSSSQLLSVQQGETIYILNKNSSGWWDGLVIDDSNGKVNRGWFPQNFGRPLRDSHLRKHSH

Rvs167, P39743 = settings: median of control spots 2707
Cyk3, Q07533 = target: T3, Cyk3, Q07533; settings: median of control spots 1451
T3 sequence (Q07533 1-83, looked up): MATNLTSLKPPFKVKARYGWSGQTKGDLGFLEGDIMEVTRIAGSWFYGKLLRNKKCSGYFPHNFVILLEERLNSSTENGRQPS

Bem1-2, P29366 = settings: median of control spots 4347
Myo5, Q04439 = target: T4, Myo5, Q04439; settings: median of control spots 471
T4 sequence (Q04439 1072-1160, looked up): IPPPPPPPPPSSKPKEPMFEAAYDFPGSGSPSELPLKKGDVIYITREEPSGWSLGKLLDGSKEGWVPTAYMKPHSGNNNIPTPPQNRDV

Nbp2, Q12163 = target: T5, Nbp2, Q12163; settings: median of control spots 357
T5 sequence (Q12163 103-180, looked up): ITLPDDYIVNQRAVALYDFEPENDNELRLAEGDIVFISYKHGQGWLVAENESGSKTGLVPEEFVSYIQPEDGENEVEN

Boi1, P38041 = target: T6, Boi1, P38041; settings: median of control spots 1162
T6 sequence (P38041 1-86, looked up): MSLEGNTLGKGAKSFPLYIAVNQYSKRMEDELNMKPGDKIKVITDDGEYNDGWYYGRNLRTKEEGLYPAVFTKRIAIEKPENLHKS

Hof1, Q05080 = target: T7, Hof1, Q05080; settings: median of control spots 4086
T7 sequence (Q05080 590-669, looked up): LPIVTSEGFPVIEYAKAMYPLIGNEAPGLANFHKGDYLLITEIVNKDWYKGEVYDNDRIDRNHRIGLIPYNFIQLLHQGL

Lsb1, P53281 = target: T8, Lsb1, P53281; settings: median of control spots 388
T8 sequence (P53281 45-122, looked up): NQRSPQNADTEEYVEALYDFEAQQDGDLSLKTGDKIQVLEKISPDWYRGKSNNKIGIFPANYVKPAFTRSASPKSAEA

Abp1, P15891 = target: T9, Abp1, P15891; settings: median of control spots 935
T9 sequence (P15891 535-592, looked up): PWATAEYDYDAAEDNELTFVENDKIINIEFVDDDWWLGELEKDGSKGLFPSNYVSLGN

Hse1, P38753 = target: T10, Hse1, P38753; settings: median of control spots 1727
T10 sequence (P38753 208-285, looked up): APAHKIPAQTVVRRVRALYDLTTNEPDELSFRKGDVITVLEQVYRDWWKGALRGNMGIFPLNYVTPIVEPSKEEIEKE

Lsb3, P43603 = target: T11, Lsb3, P43603; settings: median of control spots 406
T11 sequence (P43603 385-451, looked up): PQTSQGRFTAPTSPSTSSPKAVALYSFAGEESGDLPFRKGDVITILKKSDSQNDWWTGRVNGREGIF

Sla1-2, P32790 = target: T12, Sla1-2, P32790; settings: median of control spots 712
T12 sequence (P32790 60-140, looked up): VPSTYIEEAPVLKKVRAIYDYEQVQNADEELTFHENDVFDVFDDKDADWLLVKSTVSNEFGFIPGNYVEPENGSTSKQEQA

Bzz1-2, P38822 = target: T13, Bzz1-2, P38822; settings: median of control spots 4538
T13 sequence (P38822 568-633, looked up): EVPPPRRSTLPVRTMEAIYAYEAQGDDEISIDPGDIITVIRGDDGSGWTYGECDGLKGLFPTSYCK

Sla1-3, P32790 = target: T14, Sla1-3, P32790; settings: median of control spots 5475
T14 sequence (P32790 344-424, looked up): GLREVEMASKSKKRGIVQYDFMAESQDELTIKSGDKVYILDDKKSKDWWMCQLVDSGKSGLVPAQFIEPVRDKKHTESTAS

Bem1-1, P29366 = settings: median of control spots 4282
Bud14, P27637 = target: T15, Bud14, P27637; settings: median of control spots 956
T15 sequence (P27637 247-328, looked up): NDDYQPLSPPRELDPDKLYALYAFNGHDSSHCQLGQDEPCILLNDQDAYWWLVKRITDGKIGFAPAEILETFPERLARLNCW

Myo3, P36006 = settings: median of control spots 468
Lsb4, P32793 = target: T16, Lsb4, P32793; settings: median of control spots 397
T16 sequence (P32793 402-468, looked up): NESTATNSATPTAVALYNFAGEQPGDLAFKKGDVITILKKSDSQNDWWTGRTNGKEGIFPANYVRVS

Sho1, P40073 = settings: median of control spots 1148
Bzz1-1, P38822 = target: T17, Bzz1-1, P38822; settings: median of control spots 4446
T17 sequence (P38822 478-572, looked up): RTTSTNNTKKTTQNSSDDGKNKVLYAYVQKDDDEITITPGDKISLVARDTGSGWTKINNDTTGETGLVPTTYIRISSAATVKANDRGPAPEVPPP

Fus1, P11710 = target: T18, Fus1, P11710; settings: median of control spots 1200
T18 sequence (P11710 432-512, looked up): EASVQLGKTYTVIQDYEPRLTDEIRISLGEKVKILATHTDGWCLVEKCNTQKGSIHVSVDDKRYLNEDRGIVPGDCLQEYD

Pex13, P80667 = target: T19, Pex13, P80667; settings: median of control spots 1341
T19 sequence (P80667 295-386, looked up): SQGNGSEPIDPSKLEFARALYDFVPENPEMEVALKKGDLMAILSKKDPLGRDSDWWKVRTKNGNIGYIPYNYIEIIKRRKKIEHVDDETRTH

Boi2, P39969 = target: T20, Boi2, P39969; settings: median of control spots 1161
T20 sequence (P39969 32-116, looked up): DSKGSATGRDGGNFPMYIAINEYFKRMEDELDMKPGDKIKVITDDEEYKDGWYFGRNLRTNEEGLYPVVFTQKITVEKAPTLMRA

Pin3, Q06449 = target: T21, Pin3, Q06449; settings: median of control spots 2171
T21 sequence (Q06449 53-122, looked up): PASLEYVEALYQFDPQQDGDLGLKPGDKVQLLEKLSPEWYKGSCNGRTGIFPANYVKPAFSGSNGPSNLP

Sequence of Rvs167, P39743 (P39743 419-482): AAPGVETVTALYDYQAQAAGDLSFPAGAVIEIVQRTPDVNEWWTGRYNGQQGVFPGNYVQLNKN
Sequence of Bem1-2, P29366 (P29366 139-227): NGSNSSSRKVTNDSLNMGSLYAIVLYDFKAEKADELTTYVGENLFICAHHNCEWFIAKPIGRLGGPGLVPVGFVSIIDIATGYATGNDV
Sequence of Bem1-1, P29366 (P29366 55-141): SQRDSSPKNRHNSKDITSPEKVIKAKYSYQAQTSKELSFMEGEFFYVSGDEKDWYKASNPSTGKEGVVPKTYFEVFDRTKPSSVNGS
Sequence of Sho1, P40073 (P40073 287-367): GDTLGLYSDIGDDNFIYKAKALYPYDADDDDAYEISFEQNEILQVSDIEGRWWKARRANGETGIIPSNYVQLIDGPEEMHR

Binder: VKPRQLFPIPLNKVD
- SPOT intensity (GST): 0
- SPOT intensity (Bbc1, P47068): 0
- SPOT intensity (Cdc25, P04821): 0
- SPOT intensity (Rvs167, P39743): 0
- SPOT intensity (Cyk3, Q07533): 0
- SPOT intensity (Bem1-2, P29366): 0
- SPOT intensity (Myo5, Q04439): 0
- SPOT intensity (Nbp2, Q12163): 0
- SPOT intensity (Boi1, P38041): 0
- SPOT intensity (Hof1, Q05080): 0
- SPOT intensity (Lsb1, P53281): 880
- SPOT intensity (Abp1, P15891): 10
- SPOT intensity (Hse1, P38753): 0
- SPOT intensity (Lsb3, P43603): 0
- SPOT intensity (Sla1-2, P32790): 0
- SPOT intensity (Bzz1-2, P38822): 0
- SPOT intensity (Sla1-3, P32790): 0
- SPOT intensity (Bem1-1, P29366): 0
- SPOT intensity (Bud14, P27637): 0
- SPOT intensity (Myo3, P36006): 0
- SPOT intensity (Lsb4, P32793): 0
- SPOT intensity (Sho1, P40073): 8
- SPOT intensity (Bzz1-1, P38822): 1
- SPOT intensity (Fus1, P11710): 0
- SPOT intensity (Pex13, P80667): 0
- SPOT intensity (Boi2, P39969): 0
- SPOT intensity (Pin3, Q06449): 5

Binder: YSRKKLPVVLSKMTL
- SPOT intensity (GST): 2
- SPOT intensity (Bbc1, P47068): 18
- SPOT intensity (Cdc25, P04821): 0
- SPOT intensity (Rvs167, P39743): 2
- SPOT intensity (Cyk3, Q07533): 1
- SPOT intensity (Bem1-2, P29366): 0
- SPOT intensity (Myo5, Q04439): 4
- SPOT intensity (Nbp2, Q12163): 0
- SPOT intensity (Boi1, P38041): 0
- SPOT intensity (Hof1, Q05080): 2
- SPOT intensity (Lsb1, P53281): 888
- SPOT intensity (Abp1, P15891): 64
- SPOT intensity (Hse1, P38753): 1
- SPOT intensity (Lsb3, P43603): 1
- SPOT intensity (Sla1-2, P32790): 4
- SPOT intensity (Bzz1-2, P38822): 0
- SPOT intensity (Sla1-3, P32790): 12
- SPOT intensity (Bem1-1, P29366): 1
- SPOT intensity (Bud14, P27637): 3
- SPOT intensity (Myo3, P36006): 1
- SPOT intensity (Lsb4, P32793): 0
- SPOT intensity (Sho1, P40073): 47
- SPOT intensity (Bzz1-1, P38822): 1
- SPOT intensity (Fus1, P11710): 2
- SPOT intensity (Pex13, P80667): 8
- SPOT intensity (Boi2, P39969): 1
- SPOT intensity (Pin3, Q06449): 20

Second part, the binder after the results:

- SPOT intensity (GST): 0
- SPOT intensity (Bbc1, P47068): 0
- SPOT intensity (Cdc25, P04821): 0
- SPOT intensity (Rvs167, P39743): 0
- SPOT intensity (Cyk3, Q07533): 0
- SPOT intensity (Bem1-2, P29366): 0
- SPOT intensity (Myo5, Q04439): 1
- SPOT intensity (Nbp2, Q12163): 0
- SPOT intensity (Boi1, P38041): 1
- SPOT intensity (Hof1, Q05080): 0
- SPOT intensity (Lsb1, P53281): 705
- SPOT intensity (Abp1, P15891): 0
- SPOT intensity (Hse1, P38753): 0
- SPOT intensity (Lsb3, P43603): 0
- SPOT intensity (Sla1-2, P32790): 0
- SPOT intensity (Bzz1-2, P38822): 0
- SPOT intensity (Sla1-3, P32790): 1
- SPOT intensity (Bem1-1, P29366): 0
- SPOT intensity (Bud14, P27637): 0
- SPOT intensity (Myo3, P36006): 0
- SPOT intensity (Lsb4, P32793): 0
- SPOT intensity (Sho1, P40073): 0
- SPOT intensity (Bzz1-1, P38822): 2
- SPOT intensity (Fus1, P11710): 0
- SPOT intensity (Pex13, P80667): 0
- SPOT intensity (Boi2, P39969): 0
- SPOT intensity (Pin3, Q06449): 45
Binder: TYNRTAFQIPGDQSI

- SPOT intensity (GST): 0
- SPOT intensity (Bbc1, P47068): 226
- SPOT intensity (Cdc25, P04821): 2
- SPOT intensity (Rvs167, P39743): 4
- SPOT intensity (Cyk3, Q07533): 0
- SPOT intensity (Bem1-2, P29366): 2
- SPOT intensity (Myo5, Q04439): 0
- SPOT intensity (Nbp2, Q12163): 2
- SPOT intensity (Boi1, P38041): 0
- SPOT intensity (Hof1, Q05080): 0
- SPOT intensity (Lsb1, P53281): 379
- SPOT intensity (Abp1, P15891): 133
- SPOT intensity (Hse1, P38753): 9
- SPOT intensity (Lsb3, P43603): 41
- SPOT intensity (Sla1-2, P32790): 0
- SPOT intensity (Bzz1-2, P38822): 0
- SPOT intensity (Sla1-3, P32790): 15
- SPOT intensity (Bem1-1, P29366): 0
- SPOT intensity (Bud14, P27637): 0
- SPOT intensity (Myo3, P36006): 3
- SPOT intensity (Lsb4, P32793): 57
- SPOT intensity (Sho1, P40073): 40
- SPOT intensity (Bzz1-1, P38822): 0
- SPOT intensity (Fus1, P11710): 0
- SPOT intensity (Pex13, P80667): 21
- SPOT intensity (Boi2, P39969): 0
- SPOT intensity (Pin3, Q06449): 86
Binder: HPRFVSPRIPSRIVK
